Data reported in paper PMC7308715.

Target: N-ribosyltransferase from Archaeoglobus veneficus SNP6 (AvNRT) (Archaeoglobus veneficus SNP6)
Assay: AUC; sedimentation velocity; 20 mM Tris-HCl, pH 8, 20 °C, 50,000 x g; profiles recorded at 292 nm; c(s) analysis with SEDFIT

stoichiometry N: 4
Substance: N-ribosyltransferase from Archaeoglobus veneficus SNP6 (AvNRT) (enzyme)
